Results on 67 sequences are retold here after the supplement of paper PMC10724198.

± gives the standard deviation of the averaged measurements.

For this data set, the system named is Saccharomyces cerevisiae. Briefly: protein stability index of tFT-peptide fusion (C-terminal peptide) (PSI (0-1 scale)); higher = more stable (slower turnover). As to conditions: temperature: 30 C. The protocol:
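MPS profiling in S. cerevisiae of the yeast C-terminome library: the last 12 aa of each annotated ORF are fused to the C-terminus of a sfGFP-mCherry timer, after a GGGS linker. Cells are FACS-sorted into 8 mCherry/sfGFP bins and deep-sequenced. PSI runs from 0 (unstable) to 1 (stable); wild type and das1Δ backgrounds, two technical replicates each.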

[1] abbreviates: genetic background: das1 deletion.

SQLLNLLQDLDT [ENV7 C-terminal 12 aa] displayed a protein stability index under setting [1] of 0.696 ± 0.02 and a protein stability index (genetic background: wild type) of 0.722 ± 0.011.
For SRFRTNIAFITQ [YJL015C C-terminal 12 aa] the same measures were 0.71 ± 0.012 and 0.70081 ± 0.00066.
In the case of SRGHDLASEYPL [ERS1 C-terminal 12 aa], the protein stability index is, setting by setting: under setting [1], 0.706 ± 0.015; (genetic background: wild type) 0.682 ± 0.0085.
Consider SRLFSEEKSSVH [YJL150W C-terminal 12 aa], for which the protein stability index is, setting by setting: under setting [1], 0.7239 ± 0.0066; (genetic background: wild type) 0.694 ± 0.024.
SRQFEQNLQIND [SLF1 C-terminal 12 aa] came in with a protein stability index under setting [1] of 0.7394 ± 0.0052 and a protein stability index (genetic background: wild type) of 0.676 ± 0.013.
The matching figures for SRSGPDSTNIKL [MPP10 C-terminal 12 aa]: 0.688 ± 0.011 and 0.667 ± 0.0034.
For SSIFVRVYKFWC [BAP3 C-terminal 12 aa] the same measures were 0.698 ± 0.018 and 0.716 ± 0.096.
Regarding SSNFASNIFSLF [YBR089W C-terminal 12 aa], the protein stability index reads like this: under setting [1], 0.7346 ± 0.0049; (genetic background: wild type) 0.448 ± 0.01.
The matching figures for SSQQLTLRPPLG [YGL109W C-terminal 12 aa]: 0.6922 ± 0.0068 and 0.669 ± 0.0086.
The sequence “SSSSNFLEESSS [YER148W-A C-terminal 12 aa]” registered a protein stability index under setting [1] of 0.7024 ± 0.00079 and a protein stability index (genetic background: wild type) of 0.6861 ± 0.006.
The matching figures for SSTTALDALNKE [TGL1 C-terminal 12 aa]: 0.696 ± 0.0083 and 0.684 ± 0.048.
The matching figures for SSVKNSVEMTDF [TDA11 C-terminal 12 aa]: 0.7099 ± 0.0049 and 0.698 ± 0.012.
For SSYNSNVGHIKN [WHI3 C-terminal 12 aa], the protein stability index reads like this: under setting [1], 0.705 ± 0.019; (genetic background: wild type) 0.736 ± 0.0042.
For STIQTTSVDPTT [BSC1 C-terminal 12 aa] the same measures were 0.7104 ± 0.0039 and 0.682 ± 0.036.
For STIRRLREMVEA [RPL43A C-terminal 12 aa] the same measures were 0.547 ± 0.013 and 0.539 ± 0.028.
For the sequence STKILETSANYL [RVB1 C-terminal 12 aa], the protein stability index came out at 0.69 ± 0.019 under setting [1] and 0.679 ± 0.047 (genetic background: wild type).
In turn, STLSRPFTWEEI [ATG34 C-terminal 12 aa] displayed a protein stability index under setting [1] of 0.715 ± 0.031 and a protein stability index (genetic background: wild type) of 0.75193 ± 0.00031.
SVHLDQLLDGKE [CSI2 C-terminal 12 aa]: the protein stability index stood at 0.714 ± 0.0086 under setting [1] and 0.669 ± 0.013 (genetic background: wild type).
The matching figures for SVLQQTSKEPFW [HOS4 C-terminal 12 aa]: 0.732 ± 0.016 and 0.6975 ± 0.0026.
SYEIFEGSKKVM [CET1 C-terminal 12 aa]: the protein stability index under setting [1] worked out at 0.699 ± 0.033 and the protein stability index (genetic background: wild type) was 0.6785 ± 0.0039.
With SYKSNQPSSQNT [MDM36 C-terminal 12 aa], the protein stability index under setting [1] is 0.672 ± 0.017 and the protein stability index (genetic background: wild type) is 0.675 ± 0.0096.
The matching figures for TAAQMLEVQNEA [ARI1 C-terminal 12 aa]: 0.6837 ± 0.0021 and 0.7016 ± 0.0034.
As for TALDYVSEKKKN [STE24 C-terminal 12 aa], the protein stability index by setting is: under setting [1], 0.679 ± 0.012; (genetic background: wild type) 0.7093 ± 0.0027.
For TDGPNEKWLPDY [SKS1 C-terminal 12 aa], the protein stability index runs as follows: under setting [1], 0.7099 ± 0.0056; (genetic background: wild type) 0.712 ± 0.046.
With TDISGEKNSSKI [RLM1 C-terminal 12 aa], the protein stability index came to 0.7039 ± 0.0055 under setting [1] and 0.756 ± 0.031 (genetic background: wild type).
As to TDTTLIYDIDLE [SPT8 C-terminal 12 aa], the protein stability index is, setting by setting: under setting [1], 0.709 ± 0.036; (genetic background: wild type) 0.718 ± 0.039.
On to TEEVEKAISKSQ [YFH1 C-terminal 12 aa], for which the protein stability index turned out to be 0.7018 ± 0.0027 under setting [1] and 0.7208 ± 0.0067 (genetic background: wild type).
The matching figures for TESENDALDDLL [TLG2 C-terminal 12 aa]: 0.714 ± 0.013 and 0.707 ± 0.0078.
The matching figures for TGMGAAAIFIKE [POT1 C-terminal 12 aa]: 0.688 ± 0.04 and 0.752 ± 0.049.
Turning to TIDFFDPVKLKR [YEL025C C-terminal 12 aa], the protein stability index turned out to be 0.724 ± 0.008 under setting [1] and 0.755 ± 0.015 (genetic background: wild type).
With TKDGEVVKESKK [PET117 C-terminal 12 aa], the protein stability index by setting is: under setting [1], 0.677 ± 0.034; (genetic background: wild type) 0.676 ± 0.027.
As for TKEEIMHGLQAK [RPN5 C-terminal 12 aa], the protein stability index is, setting by setting: under setting [1], 0.682 ± 0.024; (genetic background: wild type) 0.728 ± 0.01.
Regarding TLEDLGAKVSLE [MNP1 C-terminal 12 aa], the protein stability index under setting [1] was 0.696 ± 0.011 and the protein stability index (genetic background: wild type) was 0.711 ± 0.031.
Take TLNFEEARKEYV [YDR509W C-terminal 12 aa]: the protein stability index runs as follows: under setting [1], 0.713 ± 0.016; (genetic background: wild type) 0.728 ± 0.035.
TNGNKSCLYWRV [FMP25 C-terminal 12 aa]: the protein stability index is, setting by setting: under setting [1], 0.678 ± 0.012; (genetic background: wild type) 0.66 ± 0.044.
On to TNQASPHHIFRG [ORA1 C-terminal 12 aa], for which the protein stability index by setting is: under setting [1], 0.702 ± 0.016; (genetic background: wild type) 0.752 ± 0.038.
For TQEMENTKLAES [GIS1 C-terminal 12 aa], the protein stability index under setting [1] is 0.692 ± 0.01 and the protein stability index (genetic background: wild type) came out at 0.757 ± 0.0079.
As for TRSSGDDQVFVF [PGA3 C-terminal 12 aa], the protein stability index amounted to 0.707 ± 0.0082 under setting [1] and 0.707 ± 0.012 (genetic background: wild type).
As for TSTITTTITMTL [SHE10 C-terminal 12 aa], the protein stability index came out at 0.636 ± 0.041 under setting [1] and 0.652 ± 0.042 (genetic background: wild type).
In the case of TTDNVTVMVVFL [PTC1 C-terminal 12 aa], the protein stability index by setting is: under setting [1], 0.489 ± 0.0077; (genetic background: wild type) 0.5071 ± 0.0035.
For TVFASNSFGVYV [OST5 C-terminal 12 aa] the same measures were 0.669 ± 0.02 and 0.709 ± 0.06.
The matching figures for TVGTGLITRIIE [TUF1 C-terminal 12 aa]: 0.694 ± 0.032 and 0.6945 ± 0.0066.
For the sequence TVHQLRDRGFDI [ENV9 C-terminal 12 aa], the protein stability index reads like this: under setting [1], 0.73 ± 0.0077; (genetic background: wild type) 0.717 ± 0.014.
TVIALLVGWIYY [SCS22 C-terminal 12 aa]: the protein stability index is, setting by setting: under setting [1], 0.241 ± 0.01; (genetic background: wild type) 0.255 ± 0.0075.
For TVSNETKEARET [SPT14 C-terminal 12 aa] the same measures were 0.6843 ± 0.0053 and 0.6715 ± 0.0044.
Regarding TWFKYFKWLDMF [MRX3 C-terminal 12 aa], the protein stability index under setting [1] was 0.7723 ± 0.0025 and the protein stability index (genetic background: wild type) came to 0.217 ± 0.0084.
As to TYMLNGPAGLLM [YNL165W C-terminal 12 aa], the protein stability index reads like this: under setting [1], 0.6979 ± 0.0034; (genetic background: wild type) 0.684 ± 0.024.
The matching figures for TYSTLINIDVSL [NIC96 C-terminal 12 aa]: 0.702 ± 0.059 and 0.688 ± 0.046.
Regarding VAEKIPENETTH [ISW1 C-terminal 12 aa], the protein stability index under setting [1] was 0.6915 ± 0.0016 and the protein stability index (genetic background: wild type) was 0.679 ± 0.031.
In the case of VAPKPKTKQEKK [WRS1 C-terminal 12 aa], the protein stability index is, setting by setting: under setting [1], 0.684 ± 0.0071; (genetic background: wild type) 0.658 ± 0.022.
Turning to VDGFNDALQLSK [HEM14 C-terminal 12 aa], the protein stability index by setting is: under setting [1], 0.685 ± 0.022; (genetic background: wild type) 0.708 ± 0.026.
The matching figures for VDMTSIFDFMLN [POL1 C-terminal 12 aa]: 0.7408 ± 0.0055 and 0.709 ± 0.025.
The matching figures for VDTILDEDFLLR [APC11 C-terminal 12 aa]: 0.715 ± 0.016 and 0.712 ± 0.013.
For VEHRYHKSVSRL [YBR012C C-terminal 12 aa], the protein stability index is, setting by setting: under setting [1], 0.816 ± 0.046; (genetic background: wild type) 0.759 ± 0.053.
On to VENEDEPLFIER [INP51 C-terminal 12 aa], for which the protein stability index by setting is: under setting [1], 0.708 ± 0.0089; (genetic background: wild type) 0.683 ± 0.0088.
On to VENTTVDFNYDM [YLR179C C-terminal 12 aa], for which the protein stability index under setting [1] was 0.69 ± 0.016 and the protein stability index (genetic background: wild type) came out at 0.681 ± 0.03.
As to VFKSKCKKIYIG [DGR1 C-terminal 12 aa], the protein stability index worked out at 0.7125 ± 0.0067 under setting [1] and 0.457 ± 0.04 (genetic background: wild type).
The matching figures for VFNNISLNFYIQ [YLL020C C-terminal 12 aa]: 0.782 ± 0.059 and 0.692 ± 0.0021.
In turn, VGFCGLYYYFRK [YPR195C C-terminal 12 aa] yielded a protein stability index under setting [1] of 0.647 ± 0.018 and a protein stability index (genetic background: wild type) of 0.648 ± 0.015.
VIIKVFIRRSDA [YJL086C C-terminal 12 aa]: the protein stability index was 0.515 ± 0.024 under setting [1] and 0.461 ± 0.014 (genetic background: wild type).
VIPHRGKKPVQN [AUS1 C-terminal 12 aa]: the protein stability index is 0.68051 ± 0.00019 under setting [1] and 0.681 ± 0.037 (genetic background: wild type).
Take VKDIHGRIPEML [AXL2 C-terminal 12 aa]: the protein stability index runs as follows: under setting [1], 0.6952 ± 0.0058; (genetic background: wild type) 0.694 ± 0.015.
For VKEYYKKSDVGR [ATG9 C-terminal 12 aa], the protein stability index by setting is: under setting [1], 0.7026 ± 0.004; (genetic background: wild type) 0.66 ± 0.011.
The matching figures for VKFVYRQRIALV [YLL037W C-terminal 12 aa]: 0.577 ± 0.0095 and 0.195 ± 0.0078.
With VKSLQVKKSHLK [CDC12 C-terminal 12 aa], the protein stability index was 0.704 ± 0.0088 under setting [1] and 0.742 ± 0.13 (genetic background: wild type).
VLGFFKRRSMKI [FRK1 C-terminal 12 aa] displayed a protein stability index under setting [1] of 0.72 ± 0.014 and a protein stability index (genetic background: wild type) of 0.678 ± 0.018.
Consider VLNFFKRRSMRV [KIN4 C-terminal 12 aa], for which the protein stability index by setting is: under setting [1], 0.625 ± 0.013; (genetic background: wild type) 0.634 ± 0.084.
